In article PMC11025565 (Journal of molecular biology, 2021):
Substitutions are numbered along the chain they refer to. In names and notes the source's numbering stands.

T1: integrin β3(P685-F727) transmembrane peptide with C687S and I693A (human, UniProt P05106 711-753, C687S | I693A)
T1 chain (looked up): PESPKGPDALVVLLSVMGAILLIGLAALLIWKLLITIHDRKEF

T2: integrin β3(P685-F727) transmembrane peptide with C687S (human, UniProt P05106 711-753, C687S)
T2 chain (looked up): T1 chain (looked up) with A9I

B1: integrin αIIb(A958-P998) transmembrane peptide (peptide)
chain: not shown
B2: integrin αIIb(A958-P998) transmembrane peptide with W968V (peptide, UniProt P08514 989-1029, looked up)
chain: ALEERAIPIWVVLVGVLGGLLLLTILVLAMWKVGFFKRNRP
B3: integrin αIIb(A958-P998) transmembrane peptide with G972S (peptide)
chain: not shown
B4: integrin αIIb(A958-P998) transmembrane peptide with G972A (peptide)
chain: not shown
B5: integrin αIIb(A958-P998) transmembrane peptide with W968A (peptide, UniProt P08514 989-1029, looked up)
chain: B2 chain with V11A
B6: integrin αIIb(A958-P998) transmembrane peptide with W968V/G972S (peptide, UniProt P08514 989-1029, looked up)
chain: B2 chain with G15S
B7: integrin αIIb(A958-P998) transmembrane peptide with P965A/W968V (peptide, UniProt P08514 989-1029, looked up)
chain: B2 chain with P8A
B8: integrin αIIb(A958-P998) transmembrane peptide with W968V/G972A (peptide, UniProt P08514 989-1029, looked up)
chain: B2 chain with G15A

Target: T1, integrin β3(P685-F727) transmembrane …
Test: ITC

| KXY | dH | Binder |
| --- | --- | --- |
| 9500 ± 500 | -13.9 ± 0.3 kcal/mol | B1 |
| 18600 ± 800 | -16 ± 0.2 kcal/mol | B2 |

Target: T2, integrin β3(P685-F727) transmembrane …
Test: ITC

| KXY | dH | Binder |
| --- | --- | --- |
| 13200 ± 600 | -14.3 ± 0.2 kcal/mol | B2 |
| 810 ± 20 | -14.8 ± 0.2 kcal/mol | B3 |
| 1080 ± 30 | -14.2 ± 0.2 kcal/mol | B4 |
| 14000 ± 1000 | -14.1 ± 0.3 kcal/mol | B5 |
| 1300 ± 50 | -12.5 ± 0.3 kcal/mol | B6 |
| 9700 ± 300 | -14.6 ± 0.1 kcal/mol | B7 |
| 1570 ± 50 | -14.4 ± 0.2 kcal/mol | B8 |
